Measurements from patent US20060259987A1 (UNIVERSITY OF UTAH RESEARCH FOUNDATION, published 2006).

Assays:
[1] = biological target: T1, thrombin (human, UniProt P00734 328-622); experiment: heparin cofactor assay, HCA expt #2; ATIII titrated on 10 nM thrombin + 50 ug/ml UFH, chromogenic readout
Experimental: (§1) After 3 minutes, the reactions were quenched with polybrene and chromogenic substrate S2238 (thrombin) or S2765 (fXa), and the initial rate of chromophore production (405 nm) recorded to obtain a measurement residual, uninhibited thrombin or factor Xa. IC50s were determined from plots of ATIII concentration vs. percent residual target enzyme activity.

[2] = biological target: T2, factor Xa (human, UniProt P00742 41-179; P00742 235-488, limits assumed); experiment: heparin cofactor assay, HCA expt #2; ATIII titrated on 10 nM fXa + 50 ug/ml UFH, chromogenic readout
T2 construct: Active factor Xa has a light and a heavy chain; also called fXa
Experimental: as §1

[3] = biological target: T1, thrombin; experiment: cell-based or functional assay
[4] = biological target: T2, factor Xa; experiment: cell-based or functional assay

T2 sequence (P00742 41-179 limits assumed, form in doubt, chain 1 of 2): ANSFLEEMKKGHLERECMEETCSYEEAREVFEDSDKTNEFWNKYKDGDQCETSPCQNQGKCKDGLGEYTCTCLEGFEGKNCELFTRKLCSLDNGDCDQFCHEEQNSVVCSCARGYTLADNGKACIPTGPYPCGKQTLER
T2 sequence (P00742 235-488 limits assumed, form in doubt, chain 2 of 2): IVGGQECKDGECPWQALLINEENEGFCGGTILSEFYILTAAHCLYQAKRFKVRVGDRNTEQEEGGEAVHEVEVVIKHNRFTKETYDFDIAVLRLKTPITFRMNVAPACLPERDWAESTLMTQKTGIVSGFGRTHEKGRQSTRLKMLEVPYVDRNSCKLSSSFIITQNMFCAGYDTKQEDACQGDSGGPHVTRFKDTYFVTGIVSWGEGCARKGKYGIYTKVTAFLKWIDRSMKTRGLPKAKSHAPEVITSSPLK

B1: 13C.434 (other)
chain: SPVDICTAKPRDIPMNPMCIYRSPEKKATEDEGSEQKIPEATNRRVWELSKANSRFATTFYQHLADSKNDNDNIFLSPLSISTAFAMTKLGACNDTLQQLMEVFKFDTISEKTSDQIHFFFAKLNCRLYRKANKASKLVSANRLFGDKSLTFNETYQDISELVYGAKLQPLDFKENAEQSRAAINKWVSNKTEGRITDVIPSEAINELTVLVLVNTIYFKGLWKSKFSPENTRKELFYKADGESCSASMMYQEGKFRYRRVAEGTQVLELPFKGDDITMVLILPKPEKSLAKVEKELTPEVLQEWLDELEEMMLVVHMPRFRIEDGFSLKEQLQDMGLVDLFSPEKSKLPGIVAEGRDDLYVSDAFHKAFLEVNEEGSEAAASTELEFAGRSLNPNRVTFKANRPFLVFIREVPLNTIIFMGRVANPCVK
notes: Made in Drosophila S2 cells (DES) on the S137A background; N-terminus printed as SPVDI---
IC50 [1]: 500 nM
IC50 [2]: 17 nM
rsd. IIa catG; CA expt #7; stg1 conc 200 [3]: 5 % of activity without ATIII
rsd. IIa catG; CA expt #8; stg1 conc 200 [3]: 30 % of activity without ATIII
rsd. IIa hne; CA expt #7; stg1 conc 200 [3]: 4 % of activity without ATIII
rsd. IIa hne; CA expt #8; stg1 conc 200 [3]: 12 % of activity without ATIII
rsd. IIa no add; CA expt #7; stg1 conc 200 [3]: 5 % of activity without ATIII
rsd. IIa no add; CA expt #8; stg1 conc 200 [3]: 8 % of activity without ATIII
rsd. Xa catG; CA expt #7; stg1 conc 200 [4]: 2 % of activity without ATIII
rsd. Xa catG; CA expt #8; stg1 conc 200 [4]: 1 % of activity without ATIII
rsd. Xa hne; CA expt #7; stg1 conc 200 [4]: 3 % of activity without ATIII
rsd. Xa hne; CA expt #8; stg1 conc 200 [4]: 1 % of activity without ATIII
rsd. Xa no add; CA expt #7; stg1 conc 200 [4]: 4 % of activity without ATIII
rsd. Xa no add; CA expt #8; stg1 conc 200 [4]: 2 % of activity without ATIII

B2: 13C.431 (other)
chain: SPVDICTAKPRDIPMNPMCIYRSPEKKATEDEGSEQKIPEATNRRVWELSKANSRFATTFYQHLADSKNDNDNIFLSPLSISTAFAMTKLGACNDTLQQLMEVFKFDTISEKTSDQIHFFFAKLNCRLYRKANKASKLVSANRLFGDKSLTFNETYQDISELVYGAKLQPLDFKENAEQSRAAINKWVSNKTEGRITDVIPSEAINELTVLVLVNTIYFKGLWKSKFSPENTRKELFYKADGESCSASMMYQEGKFRYRRVAEGTQVLELPFKGDDITMVLILPKPEKSLAKVEKELTPEVLQEWLDELEEMMLVVHMPRFRIEDGFSLKEQLQDMGLVDLFSPEKSKLPGIVAEGRDDLYVSDAFHKAFLEVNEEGSEAAASTELEAAGRSLNPNRVTFKANRPFLVFIREVPLNTIIFMGRVANPCVK
notes: Made in Drosophila S2 cells (DES) on the S137A background; N-terminus printed as SPVDI---; primer codon CTC gives L
IC50 [1]: 550 nM
IC50 [2]: 45 nM
rsd. IIa catG; CA expt #7; stg1 conc 200 [3]: 5 % of activity without ATIII
rsd. IIa catG; CA expt #8; stg1 conc 200 [3]: 19 % of activity without ATIII
rsd. IIa hne; CA expt #7; stg1 conc 200 [3]: 4 % of activity without ATIII
rsd. IIa hne; CA expt #8; stg1 conc 200 [3]: 25 % of activity without ATIII
rsd. IIa no add; CA expt #7; stg1 conc 200 [3]: 5 % of activity without ATIII
rsd. IIa no add; CA expt #8; stg1 conc 200 [3]: 14 % of activity without ATIII
rsd. Xa catG; CA expt #7; stg1 conc 200 [4]: 3 % of activity without ATIII
rsd. Xa catG; CA expt #8; stg1 conc 200 [4]: 1 % of activity without ATIII
rsd. Xa hne; CA expt #7; stg1 conc 200 [4]: 3 % of activity without ATIII
rsd. Xa hne; CA expt #8; stg1 conc 200 [4]: 2 % of activity without ATIII
rsd. Xa no add; CA expt #7; stg1 conc 200 [4]: 3 % of activity without ATIII
rsd. Xa no add; CA expt #8; stg1 conc 200 [4]: 2 % of activity without ATIII

B3: 13C.433 (other)
chain: SPVDICTAKPRDIPMNPMCIYRSPEKKATEDEGSEQKIPEATNRRVWELSKANSRFATTFYQHLADSKNDNDNIFLSPLSISTAFAMTKLGACNDTLQQLMEVFKFDTISEKTSDQIHFFFAKLNCRLYRKANKASKLVSANRLFGDKSLTFNETYQDISELVYGAKLQPLDFKENAEQSRAAINKWVSNKTEGRITDVIPSEAINELTVLVLVNTIYFKGLWKSKFSPENTRKELFYKADGESCSASMMYQEGKFRYRRVAEGTQVLELPFKGDDITMVLILPKPEKSLAKVEKELTPEVLQEWLDELEEMMLVVHMPRFRIEDGFSLKEQLQDMGLVDLFSPEKSKLPGIVAEGRDDLYVSDAFHKAFLEVNEEGSEAAASTELELAGRSLNPNRVTFKANRPFLVFIREVPLNTIIFMGRVANPCVK
notes: as for B1
IC50 [1]: 600 nM
IC50 [2]: 30 nM
rsd. IIa catG; CA expt #7; stg1 conc 200 [3]: 5 % of activity without ATIII
rsd. IIa catG; CA expt #8; stg1 conc 200 [3]: 18 % of activity without ATIII
rsd. IIa hne; CA expt #7; stg1 conc 200 [3]: 4 % of activity without ATIII
rsd. IIa hne; CA expt #8; stg1 conc 200 [3]: 20 % of activity without ATIII
rsd. IIa no add; CA expt #7; stg1 conc 200 [3]: 5 % of activity without ATIII
rsd. IIa no add; CA expt #8; stg1 conc 200 [3]: 13 % of activity without ATIII
rsd. Xa catG; CA expt #7; stg1 conc 200 [4]: 2 % of activity without ATIII
rsd. Xa catG; CA expt #8; stg1 conc 200 [4]: 1 % of activity without ATIII
rsd. Xa hne; CA expt #7; stg1 conc 200 [4]: 3 % of activity without ATIII
rsd. Xa hne; CA expt #8; stg1 conc 200 [4]: 1 % of activity without ATIII
rsd. Xa no add; CA expt #7; stg1 conc 200 [4]: 4 % of activity without ATIII
rsd. Xa no add; CA expt #8; stg1 conc 200 [4]: 1 % of activity without ATIII

B4: 13C.444 (other)
chain: SPVDICTAKPRDIPMNPMCIYRSPEKKATEDEGSEQKIPEATNRRVWELSKANSRFATTFYQHLADSKNDNDNIFLSPLSISTAFAMTKLGACNDTLQQLMEVFKFDTISEKTSDQIHFFFAKLNCRLYRKANKASKLVSANRLFGDKSLTFNETYQDISELVYGAKLQPLDFKENAEQSRAAINKWVSNKTEGRITDVIPSEAINELTVLVLVNTIYFKGLWKSKFSPENTRKELFYKADGESCSASMMYQEGKFRYRRVAEGTQVLELPFKGDDITMVLILPKPEKSLAKVEKELTPEVLQEWLDELEEMMLVVHMPRFRIEDGFSLKEQLQDMGLVDLFSPEKSKLPGIVAEGRDDLYVSDAFHKAFLEVNEEGSEAAASTELEVAPRSLNPNRVTFKANRPFLVFIREVPLNTIIFMGRVANPCVK
modifications: N-linked glycans added by Drosophila S2 cells; not carried by the letters
notes: as for B1
IC50 [1]: > 1000 nM
IC50 [2]: 40 nM
rsd. IIa catG; CA expt #7; stg1 conc 200 [3]: 5 % of activity without ATIII
rsd. IIa hne; CA expt #7; stg1 conc 200 [3]: 14 % of activity without ATIII
rsd. IIa no add; CA expt #7; stg1 conc 200 [3]: 6 % of activity without ATIII
rsd. Xa catG; CA expt #7; stg1 conc 200 [4]: 3 % of activity without ATIII
rsd. Xa hne; CA expt #7; stg1 conc 200 [4]: 3 % of activity without ATIII
rsd. Xa no add; CA expt #7; stg1 conc 200 [4]: 3 % of activity without ATIII
